Measurements taken from publication PMC11798926 (2024).

B1: myc-tagged SynDIG4 (wild type) [rat] / HA-tagged μ2 AP subunit [not stated] (parent complex)
chain 1: MSSEKSGLPDSVPHTSPPPYNAPQPPAEPPIPPPQTAPSSHHHHHHHYHQSGTATLPRLGAGGLASAAAGAQRGPSSSATLPRPPHHAPPGPAAGAPPPGCATLPRMPPDPYLQETRFEGPLPPPPPAAAAPPPPAPAPTAQAPGFVVPTHAGAVGTLPLGGYVAPGYPLQLQPCTAYVPVYPVGTPYASGTPGGPGVTSTLPPPPQGPGLALLEPRRPPHDYMPIAVLTTICCFWPTGIIAIFKAVQVRTALARGDLVSAEIASREARNFSFISLAVGIAAMVLCTILTVVIIIAAQHHENYWDP
chain 2: MIGGLFIYNHKGEVLISRVYRDDIGRNAVDAFRVNVIHARQQVRSPVTNIARTSFFHVKRSNIWLAAVTKQNVNAAMVFEFLYKMCDVMAAYFGKISEENIKNNFVLIYELLDEILDFGYPQNSETGALKTFITQQGIKSQHQTKEEQSQITSQVTGQIGWRREGIKYRRNELFLDVLESVNLLMSPQGQVLSAHVSGRVVMKSYLSGMPECKFGMNDKIVIEKQGKGTADETSKSGKQSIAIDDCTFHQCVRLSKFDSERSISFIPPDGEFELMRYRTTKDIILPFRVIPLVREVGRTKLEVKVVIKSNFKPSLLAQKIEVRIPTPLNTSGVQVICMKGKAKYKASENAIVWKIKRMAGMKESQISAEIELLPTNDKKKWARPPISMNFEVPFAPSGLKVRYLKVFEPKLNYSDHDVIKWVRYIGRSGIYETRC

Variants of: B1
Assay: co-immunoprecipitation (IP: HA, blot: myc), quantified; HEK293T cells; second bar chart of panel D (SD4 vs AMPA); parent: 100; read off a plot

percent of parent	Variant
~65 %SD4	chain 1 Y223A, chain 1 I226A
